Measured values published in patent publication US8980614B2, “Staphylococcus haemolyticus prophage φSH2 endolysin is lytic for Staphylococcus aureus” (The United States of America, as represented by The …, priority 2012, dated 2015).

Assays:
S. aureus Newman cells [1] = assay: Turbidity reduction assay; assay type: cell-based, Staphylococcus aureus
Method: The turbidity reduction assay measures a decrease in optical density of a bacterial suspension due to lysis of the target bacteria by a lytic protein. The assays were performed in a 96-well dish format essentially as described previously (Donovan et al. 2006, supra). In order to reduce the variability of the assay, frozen stocks of S. aureus Newman substrate cells were prepared in a large batch as described by Becker et al. (2009b, supra). Immediately prior to the assay, the frozen cells were thawed, washed, and resuspended in the desired assay buffer such that when 100 μl of cell suspension were added to 100 μl of lysis buffer+/−protein, the final suspension has an OD600nm of ˜1.0.
Protein constructs were assayed at a concentration of 1 μM, and the assay was performed at room temperature, measuring the OD600nm at 1 min intervals for 45 min. Buffer without enzyme served as the control. The steepest slopes of the resulting lysis curves, which correspond to the lytic activities of the proteins, were determined by a sliding window over each group of three consecutive time points for the entire 45 min period. Specific activities were expressed as ΔOD600nm/min/μM, and the “no enzyme” control value was subtracted from each experimental value.
In order to determine the effect of salt concentration on lytic activity, turbidity reduction assays were performed in 10 mM Tris buffers at pH 7.5 with varying NaCl concentrations between 0 mM and 600 mM. Accordingly, the influence of pH was determined by using a series of different buffers with pH values ranging from 3.5 to 10.0. Citrate buffers were used for pH 3.5, 4.5, 5.5, and 6.0, MOPS buffers for pH 6.5, 7.0, and 7.5, Tris buffers for pH 8.0 and 9.0, and Carbonate/bicarbonate buffer for pH 10.0. The concentration of the buffer substance in all buffers used was 20 mM, and the NaCl concentration was 200 mM. To test the effect of bivalent metal ions, assays were performed in 10 mM Tris, 200 mM NaCl, pH 7.5 supplemented with MgCl2, MnCl2, or CaCl2 at different concentrations (0.1 mM, 1 mM, 10 mM), buffer without metal ions serving as control.

S. aureus Newman cells [2] = assay: Zymogram with S. aureus Newman cells embedded in the gel; assay type: cell-based; settings: 5 μg protein
Method: All purified proteins were analyzed with 15% SDS-PAGE, using a Kaleidoscope Precision Plus Protein Standard (BioRad, Hercules, Calif.). For zymograms, a 300 mL culture volume equivalent of live mid-log phase (OD600nm=0.4-0.6) cells of S. aureus strain Newman was embedded in the gel during polymerization. The protein samples were boiled in Laemmli sample buffer (BioRad) with β-mercaptoethanol, and electrophoresed with identical buffers and voltage for one hour in both the SDS-PAGE and the zymogram using a Mini-Protean TETRA gel system (BioRad). SDS gels were Coomassie stained and zymograms were washed in excess water and further incubated in deionized water for 60 min, followed by incubation in 10 mM Tris, pH 8.0 with 150 mM or 300 mM NaCl for 80 min. Areas of clearing in the turbid zymogram gel indicate a lytic protein in the gel.

S. epidermidis = assay: Plate lysis assay; assay type: cell-based; settings: 100 pmoles and 2-fold serial dilutions spotted on bacterial lawns
Method: (§1) Purified proteins (100 pmoles in a 10 μl volume and five two-fold serial dilutions thereof) were spotted onto a freshly spread lawn of log phase staphylococcal cells (OD600 nm of 0.4-0.6, diluted ¼ before plating) that had air dried for 15 min on gridded TSA (tryptic soy agar) plates. The spotted plates were air dried for 10 min in a laminar flow hood and incubated overnight at 37° C. Cleared spots indicating cell lysis were scored within 24 hours of plating the cells.
(§2) The φSH2 full length enzyme and the A1 construct were further tested in plate lysis assays against a set of different staphylococcal strains, including MRSA strains (NRS 382-385), mastitis isolates (305, Tanji 1-26), and coagulase negative staphylococci (non S. aureus) (Table 2). The same molar amounts of both proteins (ranging from 100 pmoles to 3.125 pmoles, in a volume of 10 ul) were spotted onto lawns of mid log phase cells of the respective strains, and the plates were analyzed for lysis zones the next day.

S. aureus Tanji 1 = assay: Plate lysis assay; assay type: cell-based; settings: 100 pmoles and 2-fold serial dilutions spotted on bacterial lawns
Method: as §1, §2

S. aureus Newman = assay: Plate lysis assay; assay type: cell-based
Method: as §1, §2

S. xylocus = assay: Plate lysis assay; assay type: cell-based; settings: 100 pmoles and 2-fold serial dilutions spotted on bacterial lawns
Method: as §1, §2

S. aureus NRS 384 = assay: Plate lysis assay; assay type: cell-based; settings: S. aureus NRS 384 (MRSA); 100 pmoles and 2-fold serial dilutions spotted on bacterial lawns
Method: as §1, §2

S. warneri = assay: Plate lysis assay; assay type: cell-based; settings: 100 pmoles and 2-fold serial dilutions spotted on bacterial lawns
Method: as §1, §2

S. aureus Tanji 20 = assay: Plate lysis assay; assay type: cell-based; settings: 100 pmoles and 2-fold serial dilutions spotted on bacterial lawns
Method: as §1, §2

S. aureus Tanji 19 = assay: Plate lysis assay; assay type: cell-based; settings: 100 pmoles and 2-fold serial dilutions spotted on bacterial lawns
Method: as §1, §2

S. simulans = assay: Plate lysis assay; assay type: cell-based
Method: as §1, §2

S. hyicus = assay: Plate lysis assay; assay type: cell-based
Method: as §1, §2

S. aureus NRS 385 = assay: Plate lysis assay; assay type: cell-based; settings: S. aureus NRS 385 (MRSA); 100 pmoles and 2-fold serial dilutions spotted on bacterial lawns
Method: as §1, §2

S. aureus Tanji 26 = assay: Plate lysis assay; assay type: cell-based; settings: 100 pmoles and 2-fold serial dilutions spotted on bacterial lawns
Method: as §1, §2

S. chromogenes = assay: Plate lysis assay; assay type: cell-based; settings: 100 pmoles and 2-fold serial dilutions spotted on bacterial lawns
Method: as §1, §2

S. aureus NRS 382 = assay: Plate lysis assay; assay type: cell-based; settings: S. aureus NRS 382 (MRSA); 100 pmoles and 2-fold serial dilutions spotted on bacterial lawns
Method: as §1, §2

S. aureus 305 = assay: Plate lysis assay; assay type: cell-based; settings: 100 pmoles and 2-fold serial dilutions spotted on bacterial lawns
Method: as §1, §2

S. aureus NRS 383 = assay: Plate lysis assay; assay type: cell-based; settings: S. aureus NRS 383 (MRSA); 100 pmoles and 2-fold serial dilutions spotted on bacterial lawns
Method: as §1, §2

MRSA strain NRS382 = assay: Control of systemic MRSA infection in a murine model; assay type: in vivo, Balb/c mice
[3] = tested on: staphylococcal strains (MRSA strains, mastitis isolates, coagulase negative staphylococci); assay: Plate lysis assay, whole set of strains; assay type: cell-based, Staphylococcus; settings: 100 to 3.125 pmoles spotted
Method: as §1, §2

[4] = 100 pmoles and 2-fold serial dilutions spotted on bacterial lawns

B1: ΦSH2 full length: Full length C-terminally 6×His-tagged Staphylococcus haemolyticus φSH2 prophage endolysin (1-493), SEQ ID NO:2 (protein)
chain: MKTQAEINKRLDAYRKGTVDSPYRVKVWTSYDNRFYPMEPGCIDVDKSFHAQCADLTIDYILWLTDNEFRIRGNAKDAINPKKNKLPEGWKIVLNRPSTVPRKGWIAVFTDGTYWEYGHIGMVYDGGNTSRFQILEQNWNGWANKKPSLRWDNYYGLTHFIVPPVAKENKAVSSSKQQAPKQKVKKASTKKALPKITKHITGYNMDKRGYNPKGVVLHNDAGGMNYKQYYNNLVNANYDRLARGIAHAYVDRTGIWEAIDESRIAWHVADGTRPGSGNHDFYGIEVNQSLRASDKEFLENEQAVFQFAAEKLKKWGLPANRNTVRLHNEFSQTSCPHRSMVLHTGLDPLYHSITEHARLKLKDYFIKQIRAYMDGKKPTSKVVVSKPGSASTPATRKDANGYRENPHGTLYKEEHATFTANANIITRYVGPFTNMPQAGILKAGQTIIYDEVMKQDGYIWVGYTAYNGKRVYLPVRKWNRETDSVGKLWGVISLEHHHHHH
modifications: C-terminal 6xHis tag; Bacteriophage Phi SH2
NaCl concentration of optimum lytic activity (S. aureus Newman cells [1]; 1 μM protein, 10 mM Tris pH 7.5, NaCl 0-600 mM): 300 mM | lytic activity in turbidity reduction assays (in words) (S. aureus Newman cells [1]; 1 μM protein, different NaCl concentrations): moderate lytic activity | increase of lytic activity by Ca2+ (S. aureus Newman cells [1]; 10 mM CaCl2, relative to 0 mM, 10 mM Tris, 200 mM NaCl, pH 7.5): three-fold | effect of Mg2+ on lytic activity (S. aureus Newman cells [1]; 0.1-10 mM MgCl2, 10 mM Tris, 200 mM NaCl, pH 7.5): not significantly alter | effect of Mn2+ on lytic activity (S. aureus Newman cells [1]; 0.1-10 mM MnCl2, 10 mM Tris, 200 mM NaCl, pH 7.5): slightly inhibitory effect | lysis in zymogram (S. aureus Newman cells [2]; after incubation in deionized water for 60 min): faint zones of lysis | lysis in zymogram (S. aureus Newman cells [2]; water 60 min, then 10 mM Tris, 150 mM NaCl, pH 8.0 up to 80 min): considerably weaker | lysis in zymogram (S. aureus Newman cells [2]; water 60 min, then 10 mM Tris, 300 mM NaCl, pH 8.0 for 80 min): pronounced lytic band | Lytic activity (lowest amount of protein producing a lysis zone) (S. epidermidis): − (‘−’ means that no lysis was observed at the highest amount tested (100 pmoles)) | Lytic activity (lowest amount of protein producing a lysis zone) (S. aureus Tanji 1): ++ (++: 50 pmoles) | Lytic activity (lowest amount of protein producing a lysis zone) (S. aureus Newman; [4]): − (‘−’ means that no lysis was observed at the highest amount tested (100 pmoles)) | amount of protein causing a lysis zone (S. aureus Newman; 100 to 3.125 pmoles spotted): not lysed by the highest amount | Lytic activity (lowest amount of protein producing a lysis zone) (S. xylocus): +++ (+++: 25 pmoles) | Lytic activity (lowest amount of protein producing a lysis zone) (S. aureus NRS 384): + (+: 100 pmoles) | Lytic activity (lowest amount of protein producing a lysis zone) (S. warneri): +++ (+++: 25 pmoles) | Lytic activity (lowest amount of protein producing a lysis zone) (S. aureus Tanji 20): ++ (++: 50 pmoles) | Lytic activity (lowest amount of protein producing a lysis zone) (S. aureus Tanji 19): ++ (++: 50 pmoles) | Lytic activity (lowest amount of protein producing a lysis zone) (S. simulans; [4]): + (+: 100 pmoles) | amount of protein causing a lysis zone (S. simulans; 100 to 3.125 pmoles spotted): 100 pmol | Lytic activity (lowest amount of protein producing a lysis zone) (S. hyicus; [4]): ++++++ (++++++: ≦3.125 pmoles) | amount of protein causing a lysis zone (S. hyicus; 100 to 3.125 pmoles spotted): lowest amount tested | Lytic activity (lowest amount of protein producing a lysis zone) (S. aureus NRS 385): − (‘−’ means that no lysis was observed at the highest amount tested (100 pmoles)) | Lytic activity (lowest amount of protein producing a lysis zone) (S. aureus Tanji 26): + (+: 100 pmoles) | Lytic activity (lowest amount of protein producing a lysis zone) (S. chromogenes): +++ (+++: 25 pmoles) | Lytic activity (lowest amount of protein producing a lysis zone) (S. aureus NRS 382): − (‘−’ means that no lysis was observed at the highest amount tested (100 pmoles)) | Lytic activity (lowest amount of protein producing a lysis zone) (S. aureus 305): ++ (++: 50 pmoles) | Lytic activity (lowest amount of protein producing a lysis zone) (S. aureus NRS 383): − (‘−’ means that no lysis was observed at the highest amount tested (100 pmoles)) | % Survival (MRSA strain NRS382; 0 hours, mice infected i.p. with MRSA NRS382, treated 30 min post infection (φSH2 200 μg/mouse i.p.; Vancomycin 375 μg/mouse s.c.; Oxacillin 1250 μg/mouse s.c.)): 100% | % Survival (MRSA strain NRS382; 4 hours, same infection and treatment): 100% | % Survival (MRSA strain NRS382; 8 hours, same infection and treatment): 100% | % Survival (MRSA strain NRS382; 12 hours, same infection and treatment): 100% | % Survival (MRSA strain NRS382; 16 hours, same infection and treatment): 100% | % Survival (MRSA strain NRS382; 20 hours, same infection and treatment): 100% | % Survival (MRSA strain NRS382; 24 hours, same infection and treatment): 100% | % Survival (MRSA strain NRS382; 28 hours, same infection and treatment): 100% | % Survival (MRSA strain NRS382; 32 hours, same infection and treatment): 100% | % Survival (MRSA strain NRS382; 36 hours, same infection and treatment): 100% | % Survival (MRSA strain NRS382; 40 hours, same infection and treatment): 100% | % Survival (MRSA strain NRS382; 44 hours, same infection and treatment): 100% | % Survival (MRSA strain NRS382; 48 hours (end of the experiment), same infection and treatment): 100% | strains against which lytic activity was displayed ([3]; 16 strains tested): 11 out of 16 | MRSA strains lysed ([3]; four MRSA strains (NRS 382-385)): one out of four
